Experimental data reported in publication PMC7763088, “Impact of Different Lipid Ligands on the Stability and IgE-Binding Capacity of the Lentil Allergen Len c 3” (Biomolecules, 2020).

Key:
[1] = Circular dichroism spectroscopy of rLen c 3 (pH and heat stability, secondary structure); format: physicochemical; details: for random (secondary structure estimation from Far-UV CD spectra) / turn (secondary structure estimation from Far-UV CD spectra) / α-helix (secondary structure estimation from Far-UV CD spectra) / β-sheet (secondary structure estimation from Far-UV CD spectra): lipid 1 mM where added
Procedure: Circular dichroism spectra were recorded at different temperatures, using a J-810 spectropolarimeter (Jasco, Hachioji, Tokyo, Japan) in a 0.1 cm path length quartz cell (Hellma GmbH & Co. KG, Mullheim, Germany) in the 190–250 nm range, and 0.2, using solutions of rLen c 3 in 10 mM phosphate buffer, pH 7.4, or 150 mM sodium chloride, pH 2.5, simulated gastric fluid, at a concentration of 17 µM. Fatty acids or lysolipids were added at a final concentration of 1 mM. Each experiment was performed twice, independently.

[2] = test system: specific IgE in sera of allergic patients; assay: ELISA of sIgE binding to intact, heated or digested rLen c 3; set-up: species or system human
Procedure: Sera from allergic patients (n = 100) with food and pollen allergy were obtained from the Clinical Diagnostic Center of G.N. Gabrichevsky Research Institute for Epidemiology and Microbiology. The work with human sera was approved by the local ethical committees of this Institute (FS-99-01-009026, Moscow, Russia). The amount of specific IgE (sIgE) to allergen extracts in the patient sera was determined by using RIDA qLine Allergy Panel 1-4 (R-Biopharm, Pfungstadt, Germany). Screening of sera containing sIgE to peach Pru p 3 and Len c 3 was performed by ELISA. For that, plate wells (Corning Incorporated, Corning, NY, USA) were coated with recombinant allergen (0.5 μg/well) in 0.01 M phosphate buffered saline (PBS), pH 7.4, for 1 h, at 37 °C; saturated with 2% bovine serum albumin (SERVA, Heidelberg, Germany) in PBS buffer for 1 h, at 37 °C; and then incubated with the sera of allergic patients (1:4 dilution), for 2 h, at 37 °C. Specific IgE binding was detected by using peroxidase-conjugated anti-human IgE from goat (Sigma) (1:2000 dilution), and 3,3′,5,5′-tetramethylbenzidine (TMB) liquid substrate system for ELISA (Sigma). The enzymatic reaction was stopped after 30 min by 2 N H2SO4 and absorbance values were determined at 450 nm. Moreover, 0.01 M PBS with 0.05% Tween-20 was used as a washing solution on each step. For sIgE binding experiments with the intact or heated (at 100 °C for 30 min) or digested (gastric and subsequent duodenal digestion for 2 h) rLen c 3, patient sera containing sIgE were selected (Table S3). Intact and treated rLen c 3 samples were coated in wells of 96-well plates (0.5 μg/well), and ELISA was performed as described above. Sera samples from non-allergic individuals were used as a negative control.

pepsin = assay: In vitro gastric digestion (SDS-PAGE); format: in vitro ADME; details: pepsin, pH 2.0, 2 h
Procedure: Simulation of gastrointestinal digestion in vitro was performed as described in [15]. Briefly, gastric digestion was performed for 2 h, using 50 ng of pepsin (p) (Sigma) per 1 μg of rLen c 3 in 0.1 M HCl, pH 2.0 (final protein concentration 0.05 mM). For duodenal digestion, pH of the mixture resulting from gastric digestion was adjusted to 8.0 by addition of ammonium bicarbonate. The obtained mixture was incubated for 24 h at 37 °C with 2.5 ng of trypsin (t) (Promega, Madison, WI, USA) and 10 ng of α-chymotrypsin (ch) (Sigma) per 1 μg of the substrate. Degree of proteolysis was monitored by sodium dodecyl sulfate polyacrylamide gel electrophoresis (SDS-PAGE) under reducing conditions and reversed-phase high-performance liquid chromatography (RP-HPLC) on Luna C18 column (5 μm, 250 × 4.6 mm; Phenomenex, Torrance, CA, USA) at a flow rate of 0.5 mL/min, using a gradient of acetonitrile concentration from 5 to 65% for 45 min in 0.1% trifluoroacetic acid (TFA). Gel analysis was performed, using a densitometer. Electroblotting and subsequent N-terminal protein sequencing were performed as described. The protein was preheated at 100 °C for 30 min to study the effect of temperature on allergen stability. rLen c 3 was preloaded with various lipid ligands (LTP to lipid molar ratio 1:4) for 10 min, in order to investigate their effects on allergen resistance to proteolytic digest. […]

[3] = test system: trypsin and α-chymotrypsin; assay: In vitro duodenal digestion after gastric digestion (SDS-PAGE densitometry); format: in vitro ADME
Procedure: Simulation of gastrointestinal digestion in vitro was performed as described in [15]. Briefly, gastric digestion was performed for 2 h, using 50 ng of pepsin (p) (Sigma) per 1 μg of rLen c 3 in 0.1 M HCl, pH 2.0 (final protein concentration 0.05 mM). For duodenal digestion, pH of the mixture resulting from gastric digestion was adjusted to 8.0 by addition of ammonium bicarbonate. The obtained mixture was incubated for 24 h at 37 °C with 2.5 ng of trypsin (t) (Promega, Madison, WI, USA) and 10 ng of α-chymotrypsin (ch) (Sigma) per 1 μg of the substrate. Degree of proteolysis was monitored by sodium dodecyl sulfate polyacrylamide gel electrophoresis (SDS-PAGE) under reducing conditions and reversed-phase high-performance liquid chromatography (RP-HPLC) on Luna C18 column (5 μm, 250 × 4.6 mm; Phenomenex, Torrance, CA, USA) at a flow rate of 0.5 mL/min, using a gradient of acetonitrile concentration from 5 to 65% for 45 min in 0.1% trifluoroacetic acid (TFA). Gel analysis was performed, using a densitometer. Electroblotting and subsequent N-terminal protein sequencing were performed as described. The protein was preheated at 100 °C for 30 min to study the effect of temperature on allergen stability. rLen c 3 was preloaded with various lipid ligands (LTP to lipid molar ratio 1:4) for 10 min, in order to investigate their effects on allergen resistance to proteolytic digest. As a control of the influence of lipid ligands on the work of proteolytic enzymes, the same reactions were carried out, using bovine α-casein (Sigma) as a substrate. Some independent experiments were performed in each case.

[4] = 20 °C end (after cooling down from 98.5 °C), pH 7.4

Question: Which results are given for “rLen c 3: recombinant lentil allergen Len c 3, a lipid transfer protein, overexpressed in Escherichia coli”?
Answer: random (secondary structure estimation from Far-UV CD spectra) [1, 4]: 34.9%; turn (secondary structure estimation from Far-UV CD spectra) [1, 4]: 21.8%; α-helix (secondary structure estimation from Far-UV CD spectra) [1, 4]: 5.6%; β-sheet (secondary structure estimation from Far-UV CD spectra) [1, 4]: 37.7%; random (secondary structure estimation from Far-UV CD spectra) ([1]; 20 °C, pH 7.4): 30.3%; α-helix (secondary structure estimation from Far-UV CD spectra) ([1]; 20 °C, pH 7.4): 28.4%; β-sheet (secondary structure estimation from Far-UV CD spectra) ([1]; 20 °C, pH 7.4): 19.1%; Protein folding state on heating ([1]; 98.5 °C, pH 7.4): almost completely unfolded; random (secondary structure estimation from Far-UV CD spectra) ([1]; 98.5 °C, pH 7.4): 33.9%; turn (secondary structure estimation from Far-UV CD spectra) ([1]; 98.5 °C, pH 7.4): 22.0%; α-helix (secondary structure estimation from Far-UV CD spectra) ([1]; 98.5 °C, pH 7.4): 6.6%; β-sheet (secondary structure estimation from Far-UV CD spectra) ([1]; 98.5 °C, pH 7.4): 37.4%; Recovery of CD spectrum after cooling down ([1]; cooled down to 20 °C after 98.5 °C, pH 7.4): not recovered; CD spectrum at acidic pH mimicking gastric juice ([1]; pH 2.5 vs pH 7.4, 20 °C): remains almost unchanged; Temperature required for allergen denaturation ([1]; pH 7.4, also shown in ref 17): above 80 °C; IgE-binding capacity after heating ([2]; 100 °C for 30 min, vs intact rLen c 3, patient sera 1:4): significantly (p < 0.001) reduced; IgE-binding in rPru p 3 IgE+ sera ([2]; all rPru p 3 IgE+ sera, compared with rPru p 3): lower values than for rPru p 3; IgE-binding capacity after proteolytic digestion ([2]; gastric and subsequent duodenal digestion for 2 h, vs intact rLen c 3, patient sera 1:4): significantly (p < 0.001) reduced; Stability to gastric digestion (pepsin): remarkable stability; Intact protein cleaved (densitometric gel analysis) ([3]; 30 min of duodenal digestion after 2 h gastric digestion): more than 65%; Intact protein cleaved (densitometric gel analysis) ([3]; 2 h of duodenal digestion after 2 h gastric digestion): > 85%; rLen c 3 degradation ([3]; 24 h of duodenal digestion): 100%; Effect of protein preheating on degradation ([3]; preheating at 100 °C for 30 min before digestion): slightly increased an efficiency of the allergen degradation
